# Experimental data published in IntAct's records for PubMed 38225382.
# B1: CREB/ATF bZIP transcription factor (Homo sapiens), Q9NS37 (parent)
# chain: MRHSLTKLLAASGSNSPTRSESPEPAATCSLPSDLTRAAAGEEETAAAGSPGRKQQFGDEGELEAGRGSRGGVAVRAPSPEEMEEEAIASLPGEETEDMDFLSGLELADLLDPRQPDWHLDPGLSSPGPLSSSGGGSDSGGLWRGDDDDEAAAAEMQRFSDLLQRLLNGIGGCSSSSDSGSAEKRRRKSPGGGGGGGSGNDNNQAATKSPRKAAAAAARLNRLKKKEYVMGLESRVRGLAAENQELRAENRELGKRVQALQEESRYLRAVLANETGLARLLSRLSGVGLRLTTSLFRDSPAGDHDYALPVGKQKQDLLEEDDSAGGVCLHVDKDKVSVEFCSACARKASSSLKM
# partner: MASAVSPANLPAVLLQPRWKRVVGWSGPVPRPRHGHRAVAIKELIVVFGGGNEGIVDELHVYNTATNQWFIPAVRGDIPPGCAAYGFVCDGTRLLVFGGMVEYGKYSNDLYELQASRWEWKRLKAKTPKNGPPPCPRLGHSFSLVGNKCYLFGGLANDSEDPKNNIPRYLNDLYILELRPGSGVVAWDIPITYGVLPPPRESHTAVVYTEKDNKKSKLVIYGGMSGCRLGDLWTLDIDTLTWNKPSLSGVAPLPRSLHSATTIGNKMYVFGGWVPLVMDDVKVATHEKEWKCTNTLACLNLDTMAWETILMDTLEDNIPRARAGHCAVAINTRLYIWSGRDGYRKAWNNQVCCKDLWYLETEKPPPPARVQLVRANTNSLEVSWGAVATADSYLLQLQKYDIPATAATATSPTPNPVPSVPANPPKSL
# B2: Peroxisomal biogenesis factor 3 (Homo sapiens), P56589 (parent)
# chain: MLRSVWNFLKRHKKKCIFLGTVLGGVYILGKYGQKKIREIQEREAAEYIAQARRQYHFESNQRTCNMTVLSMLPTLREALMQQLNSESLTALLKNRPSNKLEIWEDLKIISFTRSTVAVYSTCMLVVLLRVQLNIIGGYIYLDNAAVGKNGTTILAPPDVQQQYLSSIQHLLGDGLTELITVIKQAVQKVLGSVSLKHSLSLLDLEQKLKEIRNLVEQHKSSSWINKDGSKPLLCHYMMPDEETPLAVQACGLSPRDITTIKLLNETRDMLESPDFSTVLNTCLNRGFSRLLDNMAEFFRPTEQDLQHGNSMNSLSSVSLPLAKIIPIVNGQIHSVCSETPSHFVQDLLTMEQVKDFAANVYEAFSTPQQLEK
# B3: F-box only protein 28 (Homo sapiens), Q9NVF7 (parent)
# chain: MAAAAEERMAEEGGGGQGDGGSSLASGSTQRQPPPPAPQHPQPGSQALPAPALAPDQLPQNNTLVALPIVAIENILSFMSYDEISQLRLVCKRMDLVCQRMLNQGFLKVERYHNLCQKQVKAQLPRRESERRNHSLARHADILAAVETRLSLLNMTFMKYVDSNLCCFIPGKVIDEIYRVLRYVNSTRAPQRAHEVLQELRDISSMAMEYFDEKIVPILKRKLPGSDVSGRLMGSPPVPGPSAALTTMQLFSKQNPSRQEVTKLQQQVKTNGAGVTVLRREISELRTKVQEQQKQLQDQDQKLLEQTQIIGEQNARLAELERKLREVMESAVGNSSGSGQNEESPRKRKKATEAIDSLRKSKRLRNRK
# B4: Peroxisomal biogenesis factor 3 (Homo sapiens), P56589 (parent)
# chain: B2 chain
# partner: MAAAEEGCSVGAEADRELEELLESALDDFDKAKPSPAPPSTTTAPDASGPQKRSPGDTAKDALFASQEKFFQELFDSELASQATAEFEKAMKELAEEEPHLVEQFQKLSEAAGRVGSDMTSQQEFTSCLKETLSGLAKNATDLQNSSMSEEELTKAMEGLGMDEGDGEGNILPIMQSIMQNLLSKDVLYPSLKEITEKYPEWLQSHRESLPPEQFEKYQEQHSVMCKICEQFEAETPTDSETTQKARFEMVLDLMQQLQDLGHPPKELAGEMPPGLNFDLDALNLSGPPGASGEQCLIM
# Variants of: B1
# Conditions: with HCFC1, P51610-3
row,Variant,effect of a mutation on the interaction
1,MRHSLTKLLAASGSNSPTRSESPEPAATCSLPSDLTRAAAGEEETAAAGSPGRKQQFGDEGELEAGRGSRGGVAVRAPSPEEMEEEAIASLPGEETEDMDFLSGLELADLLDPRQPDWHLDPGLSSPGPLSSSGGGSDSGGLWRGDDDDEAAAAEMQRFSDLLQRLLNGIGGCSSSSDSGSAEKRRRKSPGGGGGGGSGNDNNQAATKSPRKAAAAAARLNRLKKKEYVMGLESRVRGLAAENQELRAENRELGKRVQALQEESRYLRAVLANETGLARLLSRLSGVGLRLTTSLFRDSPAGDHDAALPVGKQKQDLLEEDDSAGGVCLHVDKDKVSVEFCSACARKASSSLKM [Y306A],decreasing interaction strength

# Variants of: B2
# Conditions: with pex16_human PEX16, Q9Y5Y5
# Chain of pex16_human PEX16, Q9Y5Y5 (Q9Y5Y5 whole entry): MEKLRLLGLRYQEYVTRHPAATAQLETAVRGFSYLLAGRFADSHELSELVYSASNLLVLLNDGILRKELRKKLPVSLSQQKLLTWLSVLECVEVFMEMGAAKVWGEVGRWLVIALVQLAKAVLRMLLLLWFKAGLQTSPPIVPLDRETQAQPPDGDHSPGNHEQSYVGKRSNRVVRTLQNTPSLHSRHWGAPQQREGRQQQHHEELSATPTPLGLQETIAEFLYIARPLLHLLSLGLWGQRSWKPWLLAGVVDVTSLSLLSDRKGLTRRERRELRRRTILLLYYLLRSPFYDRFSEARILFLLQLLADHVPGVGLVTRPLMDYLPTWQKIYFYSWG
row,Variant,effect of a mutation on the interaction
1,MLRSVWNFLKRHKKKCIFLGTVLGGVYILGKYGQKKIREIQEREAAEYIAQARSQYHFESNQRTCNMTVLSMLPTLREALMQQLNSESLTALLKNRPSNKLEIWEDLKIISFTRSTVAVYSTCMLVVLLRVQLNIIGGYIYLDNAAVGKNGTTILAPPDVQQQYLSSIQHLLGDGLTELITVIKQAVQKVLGSVSLKHSLSLLDLEQKLKEIRNLVEQHKSSSWINKDGSKPLLCHYMMPDEETPLAVQACGLSPRDITTIKLLNETRDMLESPDFSTVLNTCLNRGFSRLLDNMAEFFRPTEQDLQHGNSMNSLSSVSLPLAKIIPIVNGQIHSVCSETPSHFVQDLLTMEQVKDFAANVYEAFSTPQQLEK [R54S],decreasing interaction strength
2,MLRSVWNFLKRHKKKCIFLGTVLGGVYILGKYGQKKIREIQEREAAEYIAQARRQYHFESNQRTCNMTVLSMLPTLREALMQQLNSESLTALLKNRPSNKLEIWEDLKIISFTRSTVAVYSTCMLVVLLRVQLNIIGGYIYLDNAAVGKNGTTILAPPDVQQQYLSSIQHLLGDGLTELITVIKQAVQKVLGSVSLKHSLSLLDLEQKLKEIRNLVEQHKSSSWINKDGSKPLLCHYMMPDEETPLAVQACGLSPRDITTIKLLNETRDMLRSPDFSTVLNTCLNRGFSRLLDNMAEFFRPTEQDLQHGNSMNSLSSVSLPLAKIIPIVNGQIHSVCSETPSHFVQDLLTMEQVKDFAANVYEAFSTPQQLEK [E272R],decreasing interaction strength

# Variants of: B3
# Conditions: with stx1b_human STX1B
row,Variant,effect of a mutation on the interaction
1,MAAAAEERMAEEGGGGQGDGGSSLASGSTQRQPPPPAPQHPQPGSQALPAPALAPDQLPQNNTLVALPIVAIENILSFMSYDEISQLRLVCKRMDLVCQRMLNQGFLKVERYHNLCQKQVKAQLPRRESERRNHSLARHADILAAVETRLSLLNMTFMKYVDSNLCCFIPGKVIDEIYRVLRYVNSTRAPQRAHEVLQELRDISSMAMEYFDEKIVPILKRKLPGSDVSGRLMGSPPVPGPSAALTTMQLFSKQNPSRQEVTKLQQQVKTNGAGVTVLRREISELRTKVQEQQKQLQDQDQKLLEQTQIIGEQNARLAELERKLREVMESAVGNSSGSGQNEESPRKLKKATEAIDSLRKSKRLRNRK [R348L],increasing interaction strength
2,MAAAAEERMAEEGGGGQGDGGSSLASGSTQRQPPPPAPQHPQPGSQALPAPALAPDQLPQNNTLVALPIVAIENILSFMSYDEISQLRLVCKRMDLVCQRMLNQGFLKVERYHNLCQKQVKAQLPRRESERRNHSLARHADILAAVETRLSELNMTFMKYVDSNLCCFIPGKVIDEIYRVLRYVNSTRAPQRAHEVLQELRDISSMAMEYFDEKIVPILKRKLPGSDVSGRLMGSPPVPGPSAALTTMQLFSKQNPSRQEVTKLQQQVKTNGAGVTVLRREISELRTKVQEQQKQLQDQDQKLLEQTQIIGEQNARLAELERKLREVMESAVGNSSGSGQNEESPRKRKKATEAIDSLRKSKRLRNRK [L152E],decreasing interaction strength
3,MAAAAEERMAEEGGGGQGDGGSSLASGSTQRQPPPPAPQHPQPGSQALPAPALAPDQLPQNNTLVALPIVAIENILSFMSYDEISQLRLVCKRMDLVCQRMLNQGFLKVERYHNLCQKQVKAQLPRRESERRNHSLARHADILAAVETRLSLLNMTFMKYVDSNLCCFIPGKVIDEIYRVLRYVNSTRAPQRAHEVLQELRDISSMAMEYFDEKIVPILKRKLPGSDVSGRLMGSPPVPGPSAALTTMQLFSKQNPSRQEVTKLQQQVKTNGAGVTVLRREISELRTKVQEQQKQLQDQDQKLLEQTQIIGEQNARLAELERKLREVMESAVGNSSGSGQNEESPRKRKKATEARDSLRKSKRLRNRK [I355R],with no effect

# Variants of: B4
# Conditions: with pex19_human PEX19, P40855
row,Variant,effect of a mutation on the interaction
1,MLRSVWNFLKRHKKKCIFLGTVLGGVYILGKYGQKKIREIQEREAAEYIAQARRQYHFESNQRTCNMTVLSMLPTLREALMQQLNSESLQALLKNRPSNKLEIWEDLKIISFTRSTVAVYSTCMLVVLLRVQLNIIGGYIYLDNAAVGKNGTTILAPPDVQQQYLSSIQHLLGDGLTELITVIKQAVQKVLGSVSLKHSLSLLDLEQKLKEIRNLVEQHKSSSWINKDGSKPLLCHYMMPDEETPLAVQACGLSPRDITTIKLLNETRDMLESPDFSTVLNTCLNRGFSRLLDNMAEFFRPTEQDLQHGNSMNSLSSVSLPLAKIIPIVNGQIHSVCSETPSHFVQDLLTMEQVKDFAANVYEAFSTPQQLEK [T90Q],with no effect
2,MLRSVWNFLKRHKKKCIFLGTVLGGVYILGKYGQKKIREIQEREAAEYIAQARSQYHFESNQRTCNMTVLSMLPTLREALMQQLNSESLTALLKNRPSNKLEIWEDLKIISFTRSTVAVYSTCMLVVLLRVQLNIIGGYIYLDNAAVGKNGTTILAPPDVQQQYLSSIQHLLGDGLTELITVIKQAVQKVLGSVSLKHSLSLLDLEQKLKEIRNLVEQHKSSSWINKDGSKPLLCHYMMPDEETPLAVQACGLSPRDITTIKLLNETRDMLESPDFSTVLNTCLNRGFSRLLDNMAEFFRPTEQDLQHGNSMNSLSSVSLPLAKIIPIVNGQIHSVCSETPSHFVQDLLTMEQVKDFAANVYEAFSTPQQLEK [R54S],with no effect
3,MLRSVWNFLKRHKKKCIFLGTVLGGVYILGKYGQKKIREIQEREAAEYIAQARRQYHFESNQRTCNMTVLSMLPTLREALMQQLNSESLTALLKNRPSNKLEIWEDLKIISFTRSTVAVYSTCMLVVLLRVQLNIIGGYIYLDNAAVGKNGTTILAPPDVQQQYLSSIQHLLGDGLTELITVIKQAVQKVLGSVSLKHSLSLLDLEQKLKEIRNLVEQHKSSSWINKDGSKPLLCHYMMPDEETPLAVQACGLSPRDITTIKLLNETRDMLRSPDFSTVLNTCLNRGFSRLLDNMAEFFRPTEQDLQHGNSMNSLSSVSLPLAKIIPIVNGQIHSVCSETPSHFVQDLLTMEQVKDFAANVYEAFSTPQQLEK [E272R],with no effect
